1 substance from publication PMC4958245 can be followed below.

The target in this assay is recombinant Fc−ICAM-1 (human) (UniProt P05362). The assay is described as follows: BLI; Octet QKe; DBLβ domains on an Fc−ICAM-1 probe; apparent Kd from double-reference-subtracted data of three concentrations, global 1:1 Langmuir fit.
Chain of UniProt P05362 (P05362 28-480): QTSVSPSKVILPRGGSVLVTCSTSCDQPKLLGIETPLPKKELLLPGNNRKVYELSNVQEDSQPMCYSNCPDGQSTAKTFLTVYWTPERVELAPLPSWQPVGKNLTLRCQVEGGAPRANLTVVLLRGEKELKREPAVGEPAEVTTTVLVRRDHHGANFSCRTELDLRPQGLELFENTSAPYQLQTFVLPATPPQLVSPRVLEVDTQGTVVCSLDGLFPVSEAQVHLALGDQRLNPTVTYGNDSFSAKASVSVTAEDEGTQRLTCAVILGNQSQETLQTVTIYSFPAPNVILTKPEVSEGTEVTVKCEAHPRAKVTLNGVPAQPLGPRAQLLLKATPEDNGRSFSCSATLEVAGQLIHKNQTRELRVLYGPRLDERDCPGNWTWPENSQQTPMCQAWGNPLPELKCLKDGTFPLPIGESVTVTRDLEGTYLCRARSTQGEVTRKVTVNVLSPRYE

As for “IT4var07DBLβ1 (N726-C1211) (domain or fragment)”, the Kd stood at 8.7 nM.
